In the supplement of paper PMC7877785:
± gives the uncertainty stated by the source.

Assay: self-splicing fitness, log relative to wild type (ln ratio); higher = more splicing; Tetrahymena group I intron in knt gene, E. coli kanamycin selection, DiMSum; sequences stand for … in CUCUCU…GGAGGGAAAAGUUAUCAGGCAUGCACCUGGUAGCUAGUCUUUAAACCAAUAGAUUGCAUCGGUUUAAAAGGCAAGACCGUCAAAUUGCGGGAAAGGGGUCAACAGCCGUUCAGUACCAAGUCUCAGGGGAAACUUUGAGAUGGCCUUGCAAAGGGUAUGGUAAUAAGCUGACGGACAUGGUCCUAACCACGCAGCCAAGUCCUAAGUCAACAGAUCUUCUGUUGAUAUGGAUGCAGUUCACAGACUAAAUGUCGGUCGGGGAAGAUGUAUUCUUCUCAUAAGAUAUAGUCGGACCUCUCCUUAAUGGGAGCUAGCGGAUGAAGUGAUGCAACACUGGAGCCGCUGGGAACUAAUUUGUAUGCGAAAGUAUAUUGAUUAGUUUUGGAGUACUCGUGGUCG
Procedure, shortened: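 The eight P1ex-region nucleotides of an intron in the knt kanamycin-resistance gene on pET-22b(+) were all randomised and the library put into E. coli BL21(DE3). Six replicate transformations were grown overnight at 37°C or 30°C on LB agar with or without 25 μg/mL kanamycin, together with 100 μg/mL carbenicillin, 50 μM IPTG and 0.2% rhamnose. Colonies were pooled and amplicon-sequenced on an Illumina HiSeq 2500. Fitness from DiMSum is the error-weighted combination of wild-type-normalised replicate fold changes, kanamycin over none.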

Sequence | self-splicing fitness (ln) (30 °C) | self-splicing fitness (ln) (37 °C)
UGCCAGCAAUAUUACGUCUA | -0.347 ± 0.081 | -0.671 ± 0.089
UGCCAGCAAUAUUACGUGAA | -1.73 ± 0.09 | -0.422 ± 0.1
UGCCAGCAAUAUUACGUGCC | -1.03 ± 0.095 | 0.0809 ± 0.15
UGCCAGCAAUAUUACGUUAC | -2.48 ± 0.23 | -3.38 ± 0.31
UGCGAGCAAUAUUACGAAAC | -2.99 ± 0.17 | -3.8 ± 0.34
UGCGAGCAAUAUUACGACUU | -2.13 ± 0.43 | -1.7 ± 0.41
UGCGAGCAAUAUUACGAGUU | -3.05 ± 0.14 | -1.35 ± 0.13
UGCGAGCAAUAUUACGAUUU | -3.11 ± 0.37 | -0.802 ± 0.16
UGCGAGCAAUAUUACGCGUU | -3.38 ± 0.27 | -1.39 ± 0.18
UGCGAGCAAUAUUACGCUCA | – | 0.239 ± 0.26
UGCGAGCAAUAUUACGGCGC | -2.34 ± 0.46 | –
UGCGAGCAAUAUUACGGUCU | -2.12 ± 0.15 | -1.45 ± 0.25
UGCGAGCAAUAUUACGUCUG | -1.24 ± 0.1 | -1.36 ± 0.13
UGCGAGCAAUAUUACGUGGG | -4.32 ± 0.43 | -2.69 ± 0.23
UGCGAGCAAUAUUACGUGGU | -3.4 ± 0.18 | -2.63 ± 0.21
UGCGAGCAAUAUUACGUGUA | -2.83 ± 0.11 | -1.01 ± 0.1
UGCUAGCAAUAUUACGAAUG | -0.8 ± 0.1 | 0.288 ± 0.16
UGCUAGCAAUAUUACGACAG | -0.698 ± 0.059 | 0.337 ± 0.093
UGCUAGCAAUAUUACGACCG | -0.534 ± 0.17 | -0.458 ± 0.19
UGCUAGCAAUAUUACGACGA | -0.229 ± 0.13 | 0.191 ± 0.12

Sequence | self-splicing fitness (ln) (30 °C) | self-splicing fitness (ln) (37 °C)
UGCUAGCAAUAUUACGAGCC | -0.0254 ± 0.11 | -0.681 ± 0.2
UGCUAGCAAUAUUACGAUAU | -2.3 ± 0.23 | -2.25 ± 0.21
UGCUAGCAAUAUUACGCAAG | -3.87 ± 0.33 | -3.11 ± 0.25
UGCUAGCAAUAUUACGCAGU | -3.21 ± 0.31 | -2.51 ± 0.43
UGCUAGCAAUAUUACGCAUU | -3.79 ± 0.39 | -1.85 ± 0.34
UGCUAGCAAUAUUACGCCCG | -0.583 ± 0.19 | 0.807 ± 0.3
UGCUAGCAAUAUUACGCGAA | -2.97 ± 0.32 | -1.88 ± 0.21
UGCUAGCAAUAUUACGCGAC | -2.66 ± 0.26 | -1.58 ± 0.3
UGCUAGCAAUAUUACGCGGA | -2.16 ± 0.12 | -1.24 ± 0.12
UGCUAGCAAUAUUACGCUGG | -3.07 ± 0.23 | -2.25 ± 0.32
UGCUAGCAAUAUUACGGAAG | -3.4 ± 0.35 | -2.31 ± 0.39
UGCUAGCAAUAUUACGGAUC | – | -0.421 ± 0.19
UGCUAGCAAUAUUACGGCUC | -1.4 ± 0.2 | -1.33 ± 0.23
UGCUAGCAAUAUUACGUAUC | – | -2.07 ± 0.38
UGCUAGCAAUAUUACGUAUG | -1.1 ± 0.067 | -0.309 ± 0.089
UGCUAGCAAUAUUACGUCAU | -2.72 ± 0.24 | -2.61 ± 0.22
UGCUAGCAAUAUUACGUCGG | -2.68 ± 0.25 | -0.202 ± 0.23
UGCUAGCAAUAUUACGUCUC | -3.59 ± 0.16 | -2.91 ± 0.2
UGCUAGCAAUAUUACGUCUU | -1.85 ± 0.093 | -0.906 ± 0.088
